{"source": "paper PMC7308502", "about": "“Genome Segregation by the Venus Flytrap Mechanism: Probing the Interaction Between the ParF ATPase and the ParG Centromere Binding Protein” (Frontiers in Molecular Biosciences, 2020)", "key": {"ParF [1]": {"target": "T1, ParF (Salmonella enterica, UniProt Q9KJ83)", "T1 construct": "full-length, His-tagged (pET-22b(+)), produced in E. coli BL21(DE3); monomer with ADP, dimer and higher-order with ATP", "T1 sequence (Q9KJ83 1-206)": "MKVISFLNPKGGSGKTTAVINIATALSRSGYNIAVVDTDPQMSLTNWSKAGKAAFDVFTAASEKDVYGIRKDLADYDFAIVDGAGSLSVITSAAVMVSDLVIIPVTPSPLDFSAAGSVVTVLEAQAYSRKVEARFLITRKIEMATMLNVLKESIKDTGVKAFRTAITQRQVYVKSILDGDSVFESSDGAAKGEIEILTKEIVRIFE", "assay": "fluorescence anisotropy titration", "format": "binding", "settings": "read-out: apparent Kd; 20 mM HEPES, 150 mM NaCl, 1 mM MgCl2, pH 7.0; 0.9 μM labelled compound; possible hydrolysis during measurement"}, "[2]": {"target": "wild-type ParF fused to the T18 or T25 fragment of Bordetella pertussis adenylate cyclase (plasmid TP228 (in Escherichia coli))", "assay": "two-hybrid"}, "[3]": {"target": "wild-type ParF, His-tagged, purified (plasmid TP228 (in Escherichia coli))", "assay": "co-sedimentation"}, "[4]": {"target": "wild-type ParF, His-tagged, purified (plasmid TP228 (in Escherichia coli))"}, "ParF [5]": {"target": "T1, ParF", "assay": "sedimentation assay of higher-order assembly", "format": "binding", "settings": "2 mM nucleotide, 5 mM MgCl2, 30 mM Tris-HCl pH 8.0, 100 mM KCl, 30 °C", "excerpt": "sedimentation assay of higher-order assembly on ParF | ATP or non-hydrolyzable ATPγS increased the levels of higher-order assemblies of wild-type ParF"}}}
{"molecule": "CNc1ccccc1C(=O)O[C@H]1[C@@H](O)[C@H](n2cnc3c(N)ncnc32)O[C@@H]1CO[P@@](=O)(O)O[P@](=O)(O)OP(=O)(O)O", "note": "[MANT-ATP]", "values": [{"measurement": "Kd", "setting": "ParF [1]", "value": "~500", "unit": "nM"}]}
{"molecule": "wild-type ParF fused to the T18 or T25 fragment of Bordetella pertussis adenylate cyclase (natural protein)", "values": [{"measurement": "β-galactosidase units (β-galactosidase units)", "setting": "[2]", "value": 700}]}
{"molecule": "wild-type ParF, His-tagged, purified (enzyme)", "values": [{"measurement": "percent of ParF in the pellet fraction (with ParG and ATPγS)", "setting": "[3]", "value": 80, "unit": "%"}]}
{"molecule": "ParG, His-tagged, purified (natural protein)", "values": [{"measurement": "fold stimulation of ParF ATPase activity by ParG (ParF 1 μM, ParG 0-20 μM, 5 μM ATP)", "setting": "[4]", "value": 20, "unit": "fold"}, {"measurement": "percent of ParG in the pellet fraction (with ATPγS)", "setting": "[3]", "value": 50, "unit": "%"}]}
{"molecule": "Nc1ncnc2c1ncn2[C@@H]1O[C@H](COP(=O)(O)OP(=O)(O)OP(O)(O)=S)[C@@H](O)[C@H]1O", "note": "[ATPγS]", "values": [{"measurement": "fold increase in pellet fraction", "setting": "ParF [5]", "value": "~ 2 fold"}]}
{"molecule": "Nc1ncnc2c1ncn2[C@@H]1O[C@H](COP(=O)(O)OP(=O)(O)OP(=O)(O)O)[C@@H](O)[C@H]1O", "note": "[ATP]", "values": [{"measurement": "fold increase in pellet fraction", "setting": "ParF [5]", "value": "~ 2 fold"}]}
